Changes are numbered by the printed parent chain. Each block holds one molecule with its values, some of them ahead of it.
Assays:
[1] = cynomolgus monkey, in vivo; for AUCinf / C0: 2 mg/kg
Description: The pharmacokinetic profile of the constructs was analyzed in male cynomolgus monkeys of approximately 3 to 4 years old and was compared to the reference (SEQ ID NO:165). The constructs and the control were each injected in three monkeys at a dose of 2 mg/kg via an intravenous bolus injection. Blood samples were taken at predose, 5 min, 20 min, 1 h, 2 h, 4 h, 8 h (test day 1) after administration and at test days 2, 3, 5, 7, 9, 12, 15, 18, 21, 24, 27, 30, 33. In order to obtain at least 1 mL plasma per animal per sampling time, a sufficient volume of whole blood was withdrawn per sampling time. Plasma was collected after whole blood centrifugation for 30 minutes at 2200 g at room temperature (RT). The plasma samples were stored at −80° C. until analysis.
For bioanalytical determination of constructs and control article in monkey plasma, plasma samples were tested for levels of constructs and the control using ELISA based PK assays. The detection of control and constructs in the ELISA assays is based on the binding of these Nanobodies with vWF and the assay set-ups are as such that total vWF-binding Nanobody is detected.
For the reference (SEQ ID NO:165) and the construct of SEQ ID NO:167, 96-well microtiter plates (Maxisorp, Nunc, Wiesbaden, Germany) were coated overnight at 4° C. with neutravidin (Pierce) in 10:10 buffer at 3 μg/ml. Wells were aspirated and blocked for 1 hour at RT with PBS/1% casein. After this blocking step, wells were washed with PBS/0.05% Tween20. A biotinylated bivalent Nanobody against the constructs was added to the neutravidin coated plate at 2 μg/ml in PBS/0.1% casein and incubated for 1 hour at RT. After the incubation step of this capture tool, wells were washed 3 times with PBS/0.05% Tween20.
Preparations of the standards, QC samples and dilutions of the test samples were performed in a non-coated (polypropylene) plate. For the standard curve and QC-samples, solutions at the required concentrations were prepared in PBS/0.1% casein and spiked into 100% monkey plasma. To prepare standards and QC samples, a 1/100 dilution of the pure monkey plasma dilutions was made in IgM-Reducing Agent (Immunochemistry Technologies, Bloomington, USA) supplemented with 2.5% pooled human plasma (referred to as sample diluent). For the test samples, dilution factors for the test samples were estimated, and ranged between 1/100 to 1/9000 for the reference of SEQ ID NO:165 tests and between 1/100 and 12000 for the construct of SEQ ID NO: 167. Samples were diluted 1/100 in sample diluent in a first step, and if needed, further dilution was done in sample diluent supplemented with 1% cynomolgus plasma.
Standards, QC samples and diluted test samples were transferred onto the coated plate and incubated for 1 hour at RT. Afterwards the plates were washed followed by a complexation step with purified vWF (ZLB Behring). vWF diluted to 2.5 μg/ml for the assay for the reference of SEQ ID NO:165 and to 3 μg/ml for the assay for the construct of SEQ ID NO: 167 in PBS/0.1% casein was incubated on the plates for 30 minutes at RT. Plates were washed and Nanobody/vWF complexes bound to the capture tool detected with Rabbit anti-human vWF Ab (Dako, Denmark), diluted 1/2000 in PBS/0.1% casein and incubated for 30 minutes at RT. After washing, a 1/15000 dilution in PBS/0.1% casein of Horse-Radish-Peroxidase labelled goat anti-rabbit Ab (Dako, Denmark) was added to the plate and incubated for 30 minutes at RT. The enzyme coupled to the Ab catalyzes a chemical reaction with the substrate sTMB (3,3′,5,5′-tetramethylbenzidine, SDT reagents, Brussels, Belgium), resulting in a colorimetric change. After stopping this reaction after 10 minutes using HC1 (1N), the intensity of the colour was measured using a spectrophotometer at 450 nm. […]

VWF = assay: Pharmacodynamic profile: ristocetin cofactor activity assay (% RICO) after i.v. administration; type: in vivo, Cynomolgus monkey; conditions: for Tonset values: estimated, i.v. application; for AUC below T / Time below T: threshold 20% RICO, male Cynomolgus monkey, mean n = 3; for AUC below T / Time below T / Tonset / Toffset: i.v. bolus 2 mg/kg; for Tonset: time % RICO first drops below threshold; for Toffset: time % RICO first returns above threshold
Description: For the constructs used in Example 14, pharmacodynamic characteristics upon compound administration were measured by means of a ristocetin cofactor activity assay (Biopool). The ristocetin cofactor activity is a functional assay for VWF, measuring the capacity of VWF to interact with the platelet receptor glycoprotein Ib using ristocetin as a modulator.
For pharmacodynamic data analysis, descriptive statistics (mean and SD) were calculated per dose group and per sampling time point using Microsoft Excel 2007. Response parameters and associated statistics for the overall time course were calculated by noncompartmental analysis of the response-time data using WinNonlin Pro 5.1 (Pharsight Corporation, USA; 2006). The non-compartmental analysis was based on a model for pharmacodynamic data (Model 220). The threshold value was set at 20% based on extensive historical PK/PD data on the vWF-0001 compound. Preclinical studies have shown that a complete inhibition of the pharmacodynamic marker are correlated with full antithrombotic efficacy. The following main pharmacodynamic parameters were determined: time below the threshold (Time below T), area under the threshold (AUC below T), time at which the % RICO first drops below the threshold (Tonset), and time at which the % RICO first returns back above the threshold (Toffset).

human serum albumin = human serum albumin (Homo sapiens, UniProt P02768); assay: Surface plasmon resonance (BIAcore 3000) of MycHis tagged 2D3-Expedite fusions, Example 10; type: binding; conditions: for binding to HSA compared to 2D3-9GS-56E4-MycHis: FIG. 8A; for ka / dissociation rate constant (koff): Human serum albumin; for ka: chip ~3000 RU
Description: (§1) The binding of the resulting 2D3-9GS-56E4-MycHis, 2D3-9GS-59C2-MycHis, 2D3-9GS-59F2-MycHis and 2D3-9GS-59H12-MycHis fusion proteins to human and cynomolgus serum albumin (HSA and CSA respectively) was determined using surface plasmon resonance analysis. For this purpose, binding to HSA and CSA was assessed in BIAcore™ 3000, by injecting concentration series of the fusion proteins ranging from 2 μM to 200 nM on a CM5 chip coated with ˜3000 RU HSA or CSA. Coating of the chip (CM5) was performed by amine coupling using NHS/EDC for activation and ethanolamine for deactivation (Biacore amine coupling kit). HBS-EP was used as flow buffer at a rate of 45 μl min-1. 90 μl of sample was injected for 120 s.

[2] = biological target: Cynomolgus monkey serum albumin (Macaca fascicularis, UniProt A2V9Z4); assay: as above; type: binding; conditions: for ka / koff (dissociation rate constant): Cynomolgus monkey serum albumin; for ka: chip ~3000 RU; for binding to CSA compared to 2D3-9GS-56E4-MycHis: FIG. 8B
Sequence of Cynomolgus monkey serum albumin (A2V9Z4 25-608): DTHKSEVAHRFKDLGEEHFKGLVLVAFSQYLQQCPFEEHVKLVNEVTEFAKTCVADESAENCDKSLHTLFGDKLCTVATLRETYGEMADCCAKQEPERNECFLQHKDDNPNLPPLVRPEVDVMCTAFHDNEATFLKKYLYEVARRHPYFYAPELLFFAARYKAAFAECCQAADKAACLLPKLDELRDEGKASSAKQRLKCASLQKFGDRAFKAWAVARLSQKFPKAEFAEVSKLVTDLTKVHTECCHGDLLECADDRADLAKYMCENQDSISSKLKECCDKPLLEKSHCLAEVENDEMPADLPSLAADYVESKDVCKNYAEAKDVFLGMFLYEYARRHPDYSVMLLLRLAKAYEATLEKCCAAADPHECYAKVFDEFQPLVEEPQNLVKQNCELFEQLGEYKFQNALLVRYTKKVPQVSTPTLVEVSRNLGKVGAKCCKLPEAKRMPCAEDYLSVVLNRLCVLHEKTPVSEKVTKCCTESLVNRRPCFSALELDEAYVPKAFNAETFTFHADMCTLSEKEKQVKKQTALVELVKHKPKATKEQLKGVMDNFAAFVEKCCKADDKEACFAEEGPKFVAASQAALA
Description: as §1

B1: 12A2_sv1-9GS-59C2-9GS-12A2_sv1 (protein)
chain: DVQLVESGGGLVQPGGSLRLSCAASGRTFSYNPMGWFRQAPGKGRELVAAISRTGGSTYYPESVEGRFTISRDNAKRTVYLQMNSLRAEDTAVYYCAAAGVRAEQGRVRTLPSEYTFWGQGTQVTVSSGGGGSGGGSRDWDFDVFGGGTPVGGGGGGSGGGSEVQLVESGGGLVQPGGSLRLSCAASGRTFSYNPMGWFRQAPGKGRELVAAISRTGGSTYYPESVEGRFTISRDNAKRTVYLQMNSLRAEDTAVYYCAAAGVRAEQGRVRTLPSEYTFWGQGTQVTVSS
- Vdss lower relative to vWF0001 [1]: 12 fold
- dominant half-life (t½ dominant) increase relative to vWF0001 [1]: 70 fold
- mean CL decrease compared to the control [1]: 22 fold
- AUCinf ([1]; iv): 1320 µg·h/mL
- C0 ([1]; iv): 48900 ng/mL
- Tonset values (VWF): ~5 min
- mean AUC under the threshold increase relative to vWF0001 (VWF; i.v. bolus): 57 fold
- time below the threshold increase relative to vWF0001 (VWF; i.v. bolus): 33 fold
- AUC below T (VWF): 379 % RICO * h
- Time below T (VWF): 39.9 h
- Tonset (VWF): 0.079 h
- Toffset (VWF): 40.0 h

B2: 12A2_sv1-AAA-12A2_sv1 (protein)
chain: DVQLVESGGGLVQPGGSLRLSCAASGRTFSYNPMGWFRQAPGKGRELVAAISRTGGSTYYPESVEGRFTISRDNAKRTVYLQMNSLRAEDTAVYYCAAAGVRAEQGRVRTLPSEYTFWGQGTQVTVSSAAAEVQLVESGGGLVQPGGSLRLSCAASGRTFSYNPMGWFRQAPGKGRELVAAISRTGGSTYYPESVEGRFTISRDNAKRTVYLQMNSLRAEDTAVYYCAAAGVRAEQGRVRTLPSEYTFWGQGTQVTVSS
- plasma level after the initial drop [1]: ~2000 ng/mL
- plasma level directly after i.v. injection ([1]; iv): about 45 ug/ml
- AUCinf ([1]; iv): 62.6 µg·h/mL
- C0 ([1]; iv): 45300 ng/mL
- Tonset values (VWF): ~5 min
- AUC below T (VWF): 6.60 % RICO * h
- Time below T (VWF): 1.21 h
- Tonset (VWF): 0.077 h
- Toffset (VWF): 1.28 h

- binding to HSA compared to 2D3-9GS-56E4-MycHis (human serum albumin): improved binding
- ka (human serum albumin): 3.73E+03 1/ms
- dissociation rate constant (koff) (human serum albumin): 0.00179 s⁻¹
- ka [2]: 2.75E+03 1/ms
- koff (dissociation rate constant) [2]: 0.00213 s⁻¹
- binding to CSA compared to 2D3-9GS-56E4-MycHis [2]: improved binding
B3: 2D3-9GS-59C2-MycHis: SEQ ID NO: 160 (protein)
chain: EVQLVESGGSLVQPGGSLRLSCAASGFTFDDYAMSWVRQVPGKGLEWVSSINWSGTHTDYADSVKGRFTISRNNANNTLYLQMNSLKSEDTAVYYCAKNWRDAGTTWFEKSGSAGQGTQVTVSSGGGGSGGGSAAARDWDFDVFGGGTPVGGAAAEQKLISEEDLNGAAHHHHHH
modifications: Myc-His tag

- binding to HSA compared to 2D3-9GS-56E4-MycHis (human serum albumin): improved binding
- ka (human serum albumin): 4.59E+03 1/ms
- dissociation rate constant (koff) (human serum albumin): 0.00304 s⁻¹
- ka [2]: 3.45E+03 1/ms
- koff (dissociation rate constant) [2]: 0.00441 s⁻¹
- binding to CSA compared to 2D3-9GS-56E4-MycHis [2]: improved binding
B4: 2D3-9GS-59H12-MycHis: SEQ ID NO: 161 (protein)
chain: B3 chain with D138S
modifications: Myc-His tag

- ka (human serum albumin): 5.02E+03 1/ms
- dissociation rate constant (koff) (human serum albumin): 0.00497 s⁻¹
- ka [2]: 4.01E+03 1/ms
- koff (dissociation rate constant) [2]: 0.00845 s⁻¹
B5: 2D3-9GS-56E4-MycHis: SEQ ID NO: 158 (protein)
chain: B3 chain with D138Y, F141Y
modifications: Myc-His tag

- binding to HSA compared to 2D3-9GS-56E4-MycHis (human serum albumin): improved binding
- ka (human serum albumin): 6.14E+03 1/ms
- dissociation rate constant (koff) (human serum albumin): 0.00351 s⁻¹
- ka [2]: 4.85E+03 1/ms
- koff (dissociation rate constant) [2]: 0.00504 s⁻¹
- binding to CSA compared to 2D3-9GS-56E4-MycHis [2]: improved binding
B6: 2D3-9GS-59F2-MycHis: SEQ ID NO: 159 (protein)
chain: B3 chain with D138Y
modifications: Myc-His tag

Reference: patent publication US8217140B2, “Peptides capable of binding to serum proteins and compounds, constructs and polypeptides comprising the same” (Ablynx N.V., priority 2008, dated 2012)
